Key:
Assay in all cases: cell-based or functional assay
[1] = molecular target: HIV-1 Env of pseudovirus isolate MGRM-G-016 (subtype G) (HIV-1)
[2] = molecular target: HIV-1 Env of pseudovirus isolate MGRM-G-025 (subtype G) (HIV-1)
[3] = molecular target: HIV-1 Env of isolate 98CN009 (subtype CRF07_BC) (HIV-1)
[4] = molecular target: HIV-1 Env of pseudovirus isolate MGRM-G-024 (subtype G) (HIV-1)
[5] = molecular target: HIV-1 Env of isolate 92UG001 (subtype D) (HIV-1)
[6] = molecular target: HIV-1 Env of pseudovirus isolate MGRM-G-015 (subtype G) (HIV-1)
[7] = molecular target: HIV-1 Env of pseudovirus isolate MGRM-G-017 (subtype G) (HIV-1)
[8] = molecular target: HIV-1 Env of pseudovirus isolate MGRM-G-009 (subtype G) (HIV-1)
[9] = molecular target: HIV-1 Env of pseudovirus isolate MGRM-G-014 (subtype G) (HIV-1)
[10] = molecular target: HIV-1 Env of pseudovirus isolate MGRM-G-004 (subtype G) (HIV-1)
[11] = molecular target: HIV-1 Env of pseudovirus isolate MGRM-G-011 (subtype G) (HIV-1)
[12] = molecular target: HIV-1 Env of pseudovirus isolate MGRM-G-001 (subtype G) (HIV-1)
[13] = molecular target: envelope of aMLV pseudovirus (negative control)
[14] = molecular target: HIV-1 Env of pseudovirus isolate MGRM-G-006 (subtype G) (HIV-1)
[15] = molecular target: HIV-1 Env of pseudovirus isolate MGRM-G-028 (subtype G) (HIV-1)
[16] = molecular target: HIV-1 Env of isolate 92UG005 (subtype D) (HIV-1)
[17] = molecular target: HIV-1 Env of pseudovirus isolate MGRM-G-013 (subtype G) (HIV-1)
[18] = molecular target: HIV-1 Env of isolate 98CN006 (subtype CRF08_BC) (HIV-1)
[19] = molecular target: HIV-1 Env of pseudovirus isolate MGRM-G-019 (subtype G) (HIV-1)
[20] = molecular target: HIV-1 Env of isolate 92UG024 (subtype D) (HIV-1)
[21] = molecular target: HIV-1 Env of isolate 92UG046 (subtype D) (HIV-1)
[22] = molecular target: HIV-1 Env of pseudovirus isolate MGRM-G-027 (subtype G) (HIV-1)

PGT-144 (antibody), sequence (VH): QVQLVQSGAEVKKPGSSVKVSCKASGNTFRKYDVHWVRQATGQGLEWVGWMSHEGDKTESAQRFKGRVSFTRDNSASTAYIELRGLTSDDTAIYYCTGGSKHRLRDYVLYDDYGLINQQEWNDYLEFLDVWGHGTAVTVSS
PGT-144 (antibody), sequence (VL): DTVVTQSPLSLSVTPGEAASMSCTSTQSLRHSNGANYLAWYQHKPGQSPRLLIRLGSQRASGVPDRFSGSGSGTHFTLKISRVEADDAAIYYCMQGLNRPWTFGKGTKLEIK
PGT-141 (antibody), sequence (VH): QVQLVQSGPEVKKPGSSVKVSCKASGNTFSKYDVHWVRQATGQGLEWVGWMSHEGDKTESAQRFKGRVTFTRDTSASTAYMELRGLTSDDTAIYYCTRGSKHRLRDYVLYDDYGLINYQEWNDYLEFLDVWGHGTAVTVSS
PGT-141 (antibody), sequence (VL): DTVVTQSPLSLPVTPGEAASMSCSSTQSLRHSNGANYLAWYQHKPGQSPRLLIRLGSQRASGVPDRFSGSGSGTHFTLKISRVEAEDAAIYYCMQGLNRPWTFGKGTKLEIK
PGT-143 (antibody), sequence (VH): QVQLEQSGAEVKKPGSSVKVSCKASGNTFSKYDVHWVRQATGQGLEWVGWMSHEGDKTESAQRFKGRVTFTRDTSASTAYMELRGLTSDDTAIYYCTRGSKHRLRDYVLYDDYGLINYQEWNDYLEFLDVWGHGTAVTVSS
PGT-143 (antibody), sequence (VL): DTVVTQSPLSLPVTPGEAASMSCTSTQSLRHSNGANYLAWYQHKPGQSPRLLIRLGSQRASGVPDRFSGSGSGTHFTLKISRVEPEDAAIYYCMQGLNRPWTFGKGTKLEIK

| Substance | IC50 [1] | IC50 [2] | IC50 (neutralization) [3] | IC50 [4] | IC50 (neutralization) [5] | IC50 [6] | IC50 [7] | IC50 [8] | IC50 [9] | IC50 [10] | IC50 [11] | IC50 [12] | IC50 [13] | IC50 [14] | IC50 [15] | IC50 (neutralization) [16] | IC50 [17] | IC50 (neutralization) [18] | IC50 [19] | IC50 (neutralization) [20] | also measured |
| --- | --- | --- | --- | --- | --- | --- | --- | --- | --- | --- | --- | --- | --- | --- | --- | --- | --- | --- | --- | --- | --- |
| PGT-143 (antibody) | 7.6 µg/mL | > 50 µg/mL | 10.2 µg/mL | 0.048 µg/mL | > 50 µg/mL | > 50 µg/mL | 0.107 µg/mL | 2.97 µg/mL | 0.107 µg/mL | > 50 µg/mL | 0.074 µg/mL | 0.423 µg/mL | > 50 µg/mL | 0.031 µg/mL | 43 µg/mL | > 50 µg/mL | > 50 µg/mL | > 50 µg/mL | 4.77 µg/mL | > 50 µg/mL | IC50 (neutralization) [21]: > 50 µg/mL; IC50 [22]: > 50 µg/mL |
| PGT-141 (antibody) | 4.69 µg/mL | > 50 µg/mL | 1.28 µg/mL | 0.051 µg/mL | > 50 µg/mL | > 50 µg/mL | 0.164 µg/mL | 1.89 µg/mL | 0.222 µg/mL | > 50 µg/mL | 0.086 µg/mL | 0.392 µg/mL | > 50 µg/mL | 0.043 µg/mL | 24.9 µg/mL | > 50 µg/mL | > 50 µg/mL | > 50 µg/mL | 20.3 µg/mL | > 50 µg/mL | IC50 (neutralization) [21]: > 50 µg/mL; IC50 [22]: > 50 µg/mL |
| PGT-144 (antibody) | > 50 µg/mL | > 50 µg/mL | > 50 µg/mL | 7.92 µg/mL | > 50 µg/mL | > 50 µg/mL | 9.97 µg/mL | > 50 µg/mL | 0.562 µg/mL | > 50 µg/mL | 1.58 µg/mL | > 50 µg/mL | > 50 µg/mL | 3.84 µg/mL | > 50 µg/mL | > 50 µg/mL | > 50 µg/mL | > 50 µg/mL | > 50 µg/mL | > 50 µg/mL | IC50 (neutralization) [21]: > 50 µg/mL; IC50 [22]: > 50 µg/mL |
